System: Escherichia coli TOP10
Assay: shrunken log2 fold change of peptide-encoding DNA abundance (4.5 h post-induction vs induction); higher = less antimicrobial activity (less host growth inhibition)
Settings: time post-induction: 4.5 h; library: site-saturation at positions 5, 18, 19, 20
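Note: peptides expressed intracellularly from a pBAD plasmid library in pooled LB shake-flask culture, induced with 0.3% L-arabinose, DNA abundance read by NGS, three biological replicates, DESeq2 with apeglm shrinkage.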

Row | Sequence | shrunken log2 fold change
1 | RRIRCRPPRLPRPRPRPAFNPRP | -0.23
2 | RRIRCRPPRLPRPRPRPAFSPRP | -0.252
3 | RRIRCRPPRLPRPRPRPAGSPRP | 0.432
4 | RRIRCRPPRLPRPRPRPAIDPRP | -0.0121
5 | RRIRCRPPRLPRPRPRPAILPRP | -0.659
6 | RRIRCRPPRLPRPRPRPAIPPRP | -0.246
7 | RRIRCRPPRLPRPRPRPAIQPRP | -0.0767
8 | RRIRCRPPRLPRPRPRPAISPRP | 0.0324
9 | RRIRCRPPRLPRPRPRPAKWPRP | 0.235
10 | RRIRCRPPRLPRPRPRPAKYPRP | -0.299
11 | RRIRCRPPRLPRPRPRPAMCPRP | -0.144
12 | RRIRCRPPRLPRPRPRPAMFPRP | -0.0946
13 | RRIRCRPPRLPRPRPRPANHPRP | -0.282
14 | RRIRCRPPRLPRPRPRPANYPRP | -0.342
15 | RRIRCRPPRLPRPRPRPAPEPRP | 0.766
16 | RRIRCRPPRLPRPRPRPAPQPRP | 0.829
17 | RRIRCRPPRLPRPRPRPAPTPRP | 0.591
18 | RRIRCRPPRLPRPRPRPATNPRP | 0.213
19 | RRIRCRPPRLPRPRPRPAVGPRP | 0.155
20 | RRIRCRPPRLPRPRPRPAWCPRP | 0.128
21 | RRIRCRPPRLPRPRPRPAYDPRP | 0.0664
22 | RRIRCRPPRLPRPRPRPCCLPRP | -0.35
23 | RRIRCRPPRLPRPRPRPCDQPRP | 0.143
24 | RRIRCRPPRLPRPRPRPCELPRP | -0.146
25 | RRIRCRPPRLPRPRPRPCFTPRP | -0.552

Row | Sequence | shrunken log2 fold change
26 | RRIRCRPPRLPRPRPRPCGCPRP | -0.0301
27 | RRIRCRPPRLPRPRPRPCHKPRP | -0.0857
28 | RRIRCRPPRLPRPRPRPCKAPRP | -0.0437
29 | RRIRCRPPRLPRPRPRPCKRPRP | -0.115
30 | RRIRCRPPRLPRPRPRPCLHPRP | -0.824
31 | RRIRCRPPRLPRPRPRPCMEPRP | -0.681
32 | RRIRCRPPRLPRPRPRPCMIPRP | -0.23
33 | RRIRCRPPRLPRPRPRPCMPPRP | -0.66
34 | RRIRCRPPRLPRPRPRPCMTPRP | -0.114
35 | RRIRCRPPRLPRPRPRPCNKPRP | -0.671
36 | RRIRCRPPRLPRPRPRPCPAPRP | -0.178
37 | RRIRCRPPRLPRPRPRPCQCPRP | -0.208
38 | RRIRCRPPRLPRPRPRPCSSPRP | 0.0866
39 | RRIRCRPPRLPRPRPRPCTRPRP | -0.321
40 | RRIRCRPPRLPRPRPRPCTYPRP | -1.19
41 | RRIRCRPPRLPRPRPRPCVQPRP | -0.153
42 | RRIRCRPPRLPRPRPRPCVSPRP | -0.0805
43 | RRIRCRPPRLPRPRPRPCVTPRP | 0.0974
44 | RRIRCRPPRLPRPRPRPCWEPRP | -0.0142
45 | RRIRCRPPRLPRPRPRPCWFPRP | -0.386
46 | RRIRCRPPRLPRPRPRPCWLPRP | -0.0409
47 | RRIRCRPPRLPRPRPRPCYDPRP | -0.316
48 | RRIRCRPPRLPRPRPRPDALPRP | 0.0862
49 | RRIRCRPPRLPRPRPRPDAMPRP | 0.0677
50 | RRIRCRPPRLPRPRPRPDDFPRP | 0.0333

Row | Sequence | shrunken log2 fold change
51 | RRIRCRPPRLPRPRPRPDGLPRP | -0.0371
52 | RRIRCRPPRLPRPRPRPDHHPRP | -0.246
53 | RRIRCRPPRLPRPRPRPDHLPRP | -0.0314
54 | RRIRCRPPRLPRPRPRPDIDPRP | -0.182
55 | RRIRCRPPRLPRPRPRPDILPRP | -0.0877
56 | RRIRCRPPRLPRPRPRPDIRPRP | 0.121
57 | RRIRCRPPRLPRPRPRPDKKPRP | -0.132
58 | RRIRCRPPRLPRPRPRPDKTPRP | -0.0581
59 | RRIRCRPPRLPRPRPRPDLDPRP | 0.0676
60 | RRIRCRPPRLPRPRPRPDLQPRP | -0.00569
61 | RRIRCRPPRLPRPRPRPDNSPRP | -0.53
62 | RRIRCRPPRLPRPRPRPDPMPRP | 0.00263
63 | RRIRCRPPRLPRPRPRPDQPPRP | 0.171
64 | RRIRCRPPRLPRPRPRPDQQPRP | 0.0369
65 | RRIRCRPPRLPRPRPRPDQYPRP | -0.277
66 | RRIRCRPPRLPRPRPRPDVTPRP | 0.0172
67 | RRIRCRPPRLPRPRPRPDWRPRP | 0.243
68 | RRIRCRPPRLPRPRPRPDYFPRP | -0.248
69 | RRIRCRPPRLPRPRPRPDYPPRP | -0.221
70 | RRIRCRPPRLPRPRPRPEALPRP | 0.0749
71 | RRIRCRPPRLPRPRPRPEASPRP | 0.14
72 | RRIRCRPPRLPRPRPRPECRPRP | 0.0543
73 | RRIRCRPPRLPRPRPRPEEIPRP | -0.0231
74 | RRIRCRPPRLPRPRPRPEEKPRP | 0.0239
75 | RRIRCRPPRLPRPRPRPEFDPRP | -0.0199

Row | Sequence | shrunken log2 fold change
76 | RRIRCRPPRLPRPRPRPEFGPRP | 0.241
77 | RRIRCRPPRLPRPRPRPEFTPRP | -0.194
78 | RRIRCRPPRLPRPRPRPEHPPRP | -0.131
79 | RRIRCRPPRLPRPRPRPEHVPRP | 0.229
80 | RRIRCRPPRLPRPRPRPEKFPRP | 0.0607
81 | RRIRCRPPRLPRPRPRPEKNPRP | 0.165
82 | RRIRCRPPRLPRPRPRPELDPRP | 0.00162
83 | RRIRCRPPRLPRPRPRPEMHPRP | 0.304
84 | RRIRCRPPRLPRPRPRPENGPRP | -0.0135
85 | RRIRCRPPRLPRPRPRPEPMPRP | 0.176
86 | RRIRCRPPRLPRPRPRPEPYPRP | -0.364
87 | RRIRCRPPRLPRPRPRPEQQPRP | -0.0118
88 | RRIRCRPPRLPRPRPRPERDPRP | 0.325
89 | RRIRCRPPRLPRPRPRPETKPRP | 0.0774
90 | RRIRCRPPRLPRPRPRPEWSPRP | 0.144
91 | RRIRCRPPRLPRPRPRPFACPRP | -0.22
92 | RRIRCRPPRLPRPRPRPFFTPRP | -0.0887
93 | RRIRCRPPRLPRPRPRPFGAPRP | 0.102
94 | RRIRCRPPRLPRPRPRPFGIPRP | -0.129
95 | RRIRCRPPRLPRPRPRPFHEPRP | -0.917
96 | RRIRCRPPRLPRPRPRPFLAPRP | 0.0788
97 | RRIRCRPPRLPRPRPRPFLKPRP | -0.639
98 | RRIRCRPPRLPRPRPRPFMKPRP | -0.696
99 | RRIRCRPPRLPRPRPRPFPAPRP | -0.0653
100 | RRIRCRPPRLPRPRPRPFPDPRP | -0.415

Row | Sequence | shrunken log2 fold change
101 | RRIRCRPPRLPRPRPRPFPEPRP | -0.312
102 | RRIRCRPPRLPRPRPRPFQIPRP | 0.00581
103 | RRIRCRPPRLPRPRPRPFSSPRP | -0.24
104 | RRIRCRPPRLPRPRPRPFVIPRP | -0.526
105 | RRIRCRPPRLPRPRPRPFVNPRP | -0.521
106 | RRIRCRPPRLPRPRPRPFVSPRP | -0.265
107 | RRIRCRPPRLPRPRPRPFWYPRP | -0.353
108 | RRIRCRPPRLPRPRPRPGANPRP | 0.385
109 | RRIRCRPPRLPRPRPRPGCIPRP | -0.385
110 | RRIRCRPPRLPRPRPRPGDIPRP | 0.161
111 | RRIRCRPPRLPRPRPRPGEIPRP | 0.183
112 | RRIRCRPPRLPRPRPRPGEPPRP | 0.0366
113 | RRIRCRPPRLPRPRPRPGFGPRP | 0.399
114 | RRIRCRPPRLPRPRPRPGFTPRP | -0.131
115 | RRIRCRPPRLPRPRPRPGFWPRP | 0.226
116 | RRIRCRPPRLPRPRPRPGGHPRP | 0.286
117 | RRIRCRPPRLPRPRPRPGKIPRP | -0.399
118 | RRIRCRPPRLPRPRPRPGKKPRP | -0.0838
119 | RRIRCRPPRLPRPRPRPGLNPRP | -0.0525
120 | RRIRCRPPRLPRPRPRPGMTPRP | 0.0507
121 | RRIRCRPPRLPRPRPRPGNCPRP | -0.0286
122 | RRIRCRPPRLPRPRPRPGQLPRP | -0.00796
123 | RRIRCRPPRLPRPRPRPGRLPRP | -0.0858
124 | RRIRCRPPRLPRPRPRPGSAPRP | 0.148
125 | RRIRCRPPRLPRPRPRPGSFPRP | -0.22

Row | Sequence | shrunken log2 fold change
126 | RRIRCRPPRLPRPRPRPGSYPRP | -0.525
127 | RRIRCRPPRLPRPRPRPGTYPRP | -0.628
128 | RRIRCRPPRLPRPRPRPGVKPRP | -0.0157
129 | RRIRCRPPRLPRPRPRPHDEPRP | -0.0201
130 | RRIRCRPPRLPRPRPRPHDGPRP | 0.0999
131 | RRIRCRPPRLPRPRPRPHDSPRP | -0.298
132 | RRIRCRPPRLPRPRPRPHDTPRP | -0.427
133 | RRIRCRPPRLPRPRPRPHFEPRP | -0.152
134 | RRIRCRPPRLPRPRPRPHFGPRP | -0.219
135 | RRIRCRPPRLPRPRPRPHICPRP | -0.272
136 | RRIRCRPPRLPRPRPRPHIEPRP | -0.856
137 | RRIRCRPPRLPRPRPRPHKEPRP | -0.334
138 | RRIRCRPPRLPRPRPRPHKSPRP | 0.139
139 | RRIRCRPPRLPRPRPRPHMCPRP | 0.099
140 | RRIRCRPPRLPRPRPRPHMKPRP | -1.1
141 | RRIRCRPPRLPRPRPRPHMRPRP | 0.0898
142 | RRIRCRPPRLPRPRPRPHNPPRP | -0.377
143 | RRIRCRPPRLPRPRPRPHNWPRP | -0.00871
144 | RRIRCRPPRLPRPRPRPHQEPRP | -0.0176
145 | RRIRCRPPRLPRPRPRPHQMPRP | -0.691
146 | RRIRCRPPRLPRPRPRPHSSPRP | -0.823
147 | RRIRCRPPRLPRPRPRPHTIPRP | -0.38
148 | RRIRCRPPRLPRPRPRPHYPPRP | -0.902
149 | RRIRCRPPRLPRPRPRPICNPRP | -0.579
150 | RRIRCRPPRLPRPRPRPIEGPRP | 0.119
